# Test results published in IntAct's records for PubMed 10930573.
# B1: Histidine kinase 1 (Arabidopsis thaliana (Mouse-ear cress)), Q9SXL4 (parent)
# chain: MRGDSFSMSIENLPDSPMGSRKKKMQIRKVFDKMTEWVTPWRSNLESPREMMILRGDVEQDEFQYASSHCLSSYYSVFVVRLAIMVMLAILIGLLTVLTWHFTRIYTKQSLQTLAYGLRYELLQRPVLRMWSVLNTTSELTTAQVKLSEYVIKKYDKPTTQEELVEMYQAMKDVTWALFASAKALNAITINYRNGFVQAFHRDPASSSTFYIFSDLKNYSISGTGPEDVSGWNNKSIHGNMSAIWYQQQLDPVTGENLGKPLKIPPDDLINIAGISQVPDGEASWHVTVSKYMDSPLLSAALPVFDASNKSIVAVVGVTTALYSVGQLMRDLVEVHGGHIYLTSQEGYLLATSTDGPLLKNTSNGPQLMKATDSEEWVIKSGAQWLEKTYGSKRPHVVHAENVKLGDQRYYIDSFYLNLKRLPIVGVVIIPRKFIMGKVDERAFKTLIILISASVCIFFIGCVCILILTNGVSKEMKLRAELIRQLDARRRAEASSNYKSQFLANMSHELRTPMAAVIGLLDILISDDCLSNEQYATVTQIRKCSTALLRLLNNILDLSKVESGKLVLEEAEFDLGRELEGLVDMFSVQCINHNVETVLDLSDDMPALVRGDSARLVQIFANLISNSIKFTTTGHIILRGWCENINSLHDEMSVSVDRRKPWAPMKTKQVQHRNHLQKSCKNANKMVLWFEVDDTGCGIDPSKWDSVFESFEQADPSTTRTHGGTGLGLCIVRNLVNKMGGEIKVVQKNGLGTLMRLYLILSTPDTVDQNIQPDFSKYGLVVMLSMYGSTARMITSKWLRKHGIATVEASDWNELTQIIRDLLETGSRDNSFDSQHNISDPLRAELSNIVEIKNPVFVIVVDIGVLDLTTNIWKEQLNYLDRFSNKAKFAWLLKHDTSNTVKTELRRKGHVMMVNKPLYKAKMIQILEAVIKNRKRGLCNDLRNRGNGSDESHDCLEIDPTQFDTCSSDDSSETSGEKQVDKSVKPSTLHSPVLKNYLIDATTSNDDSTSASMTQKNPEEEDWKDRLYSGIALDGKNQKSLEGIRILLAEDTPVLQRVATIMLEKMGATVTAVWDGQQAVDSLNYKSINAQAPTEEHKSFEEETANKVTTRETSLRNSSPYDLILMDCQMPKMDGYEATKAIRRAEIGTELHIPIVALTAHAMSSDEAKCLEVGMDAYLTKPIDRKLMVSTILSLTKPSAFQTSLSA
# partner: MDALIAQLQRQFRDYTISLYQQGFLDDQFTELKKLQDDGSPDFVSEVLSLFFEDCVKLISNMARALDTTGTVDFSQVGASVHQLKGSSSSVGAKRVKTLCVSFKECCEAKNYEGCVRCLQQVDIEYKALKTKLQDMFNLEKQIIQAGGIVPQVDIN
# Variants of: B1
# Details: with ahp2_arath AHP2, Q9ZNV8
row,effect of a mutation on the interaction,Variant
1,disrupting interaction,D1075E
